In the nanobody polyreactivity screen of Harvey et al. (2022):

Test: yeast display, Sf9 membrane polyspecificity reagent, FACS + sequencing; frameworks hold sequencing errors
In short: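 In a synthetic yeast display library (Saccharomyces cerevisiae BJ5465), nanobody expression was induced with galactose for 36–48 hours. FACS gates were set low and high (top ~1%) using anti-HA fluorescence for expression and streptavidin fluorescence for binding of the Sf9 membrane reagent. Each polyreactivity label is drawn from the gate of origin.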
In the case of “QVQLVESGGGLVQAGGSLRLSCAASGSTFVFYTMGWYRQAPGKEREFVASISGSGGSTYYADSVKGRFTISRDNAKNTVYLQMNSLKPEDTAVYYCGAGYPYYYWTPYYYWGQGTQVTVSS”, the “polyreactivity (PSR sort gate)” value is reported as “high polyreactivity”.
For “QVQLVESGGGLVQAGGSLRLSCAASGSTFNKYTMGWYRQAPGKERELVAAISRIGGSTYYADSVKGRFTISRDNAKNTVYLQMNSLKPEDTAVYYCAAPYPIGHDWGQGTQVTVSS”, the “polyreactivity (PSR sort gate)” value was “low polyreactivity”.
In the case of “QVQLVESGGGLVQAGGSLRLSCSASGRTFKVYAMGWYRQAPGKERELVAAISYSGAGTRYADSVKGRFTISRDNAKNTVYLQMNSLKPEDTAVYYCNTDAWARVKRYEYWGQGTQVTVSS”, the “polyreactivity (PSR sort gate)” value is reported as “low polyreactivity”.
For “QVQLVESGGGLVQAGGSLRLSCAASGRIFIIYAMGWYRQAPGKERELVAAINRGATTNYADSVKGRFTISRDNAKNTVYLQMNSLKPEDTAVYYCAARGVAKLRRVGYWGQGTQVTVSS”, the “polyreactivity (PSR sort gate)” value was “high polyreactivity”.
With “QVQLVESGGGLVQAGGSLRLSCAASGFTFPYNGMGWYRQAPGKERELVASISWSGASTYYADSVKGRFTISRDNAKNTVYLQMNSLKPEDTAVYYCASDPGYYSWGSSQDDYWGQGTQVTVSS” the “polyreactivity (PSR sort gate)” value was “low polyreactivity”.
For “QVQLVESGGGLVQEGGSLGLSCAASGFIFVRYAMGWYRQAPGKERELVATITRGGGTYYADSVKARFTISRDNAKNTVYLQMKRLKPVDTAVYYCNKRGYSRYTGFGLDSWGQGTQVTVSS”, the “polyreactivity (PSR sort gate)” value was “high polyreactivity”.
For “QGQLVESGGGLVQAGGSLRLSCAASGIIFEYYDMGWYRQAPGKERELVAAIDSGGSTYYADSVKGRFTISRDNAKNTVYLQMNSLKPEDTAVYYCAASRPPNTSNTGYGSWGQGTQVTVSS”, the “polyreactivity (PSR sort gate)” value was “low polyreactivity”.
With “QVKLVESGGGLVQAGGSLRLSCADSGSIFVPNTRGWYRQAPGKERELVAAITAGGSTDYADSVKGRFTISRDNAKNTVYLQMNSLKPEDTAVYYCNADVYSWVSGKEGDYWGQGTQVTVTS” the “polyreactivity (PSR sort gate)” value was “low polyreactivity”.
For “QVQLVESGGGLVQAGGSLRLSCAASGIIFRYYAMGWYRQAPGKERELVAAISGRGGSTYYADSVKGRFTISRDNAKNTVYLQMNSLKPEDTAVYYCAIYVSWPLYYYWGQGTQVTVSS”, the “polyreactivity (PSR sort gate)” value was “low polyreactivity”.
With “QVQHVESGGGLVQAGGSRRLSCAASGRTFREYAMGWYRQAPGKERELVAAISDSGDSTYYADSVKGRFTISRDNAKNTVNLQMNSLKPVHTAVYYCAADYYDYEYDYWGQGTQVTVSS” the “polyreactivity (PSR sort gate)” value was “low polyreactivity”.
With “QVHLVQSGGGIVQEGGSLRISCAASGFTLIHYAMGWYRQAPGKERELVAGITTSGGSTYYADSVKGRFTISRDNAKNTVYLQMKSLKPEDTGVYYCADSSNTRGDYWGQGTQVTVSS” the “polyreactivity (PSR sort gate)” value was “high polyreactivity”.
With “QVQLEESGGGLVQAGGSLRLSCAASGRNFSVYAMGWYRPAPGKERELVARIRSGGSTYYADSVKGRFTISRDNAKNTVYLQMNSLKPEDTAVYYCAADGFASRWYAYYYWGQGTQVTVSS” the “polyreactivity (PSR sort gate)” value was “high polyreactivity”.
In the case of “QVQLVESGGGLVQAGGSLRLSCAASGGIFAYMGWYRQAPGKERELVASITSSGGSTYYADSVKGRFTISRDNAKNTVYLQMNSLKPEDTAVYYCAADPDFYKSVQYDYWGQGTQVTVSS”, the “polyreactivity (PSR sort gate)” value is reported as “low polyreactivity”.
With “QVQLVESGGGLVQAGGSLRLSCAASGFIFLNNTLGWYRQAPGKERELVAAISWSGGSTYYADSVKGRFTISRDNAKYSVYLQMNSLKPEDTAVYYCAADVKHTTEYDYWGKGTQVTVSS” the “polyreactivity (PSR sort gate)” value was “high polyreactivity”.
For “QVQLVESGGGLVQAGGSLRLSCAASGRTFRRYAMGWYRQAPGKEREFVAAIRYSGGITYYADSVKGRFTISRDNAKNTVYLQMNSLKPEDTAVYYCAAYGWGNRWYSRFDYWGQGTQVTVSS”, the “polyreactivity (PSR sort gate)” value was “high polyreactivity”.
In the case of “QVQLVESGGGLVQAGGSLRLSCAASGSIFILNAMGWYRQAPGKERELGAAISWSGGRTNYADSVKGRFTISRDNAKNPVYLHMNSLKPEDTAVYYCAARVTPYRGFYYWGQGTQVTVSS”, the “polyreactivity (PSR sort gate)” value is reported as “high polyreactivity”.
With “QVQLVESGGGLFQAGGSLRLSCAASGSIFGKYTMGWYRQAPGKERELVAGITYRAGSTYYADSVKGRFTISRDNAKNTVYLQMNSLKPEDTAVYYCAARFYFRWYYYGSYANYWGQGTQVTVSS” the “polyreactivity (PSR sort gate)” value was “high polyreactivity”.
For “QVQLVESGGCLVQAGGSLRFSCAASGSTFGWYAMGWYRHAPGKERELVAAITSVGSTYYADYVKGRFRISRDNAKNTVYLQMNSLKPEDTAVYYCAKRFGSGWAWFGYWGQGTQVTVSS”, the “polyreactivity (PSR sort gate)” value was “low polyreactivity”.
For “QVQLVESGGGLVQAGGSLRLSCAASGSTFTYYTMAWYRQAPGKERELVAAISWSGGRTYYADSVKGRFTISRDNAKNTVYLQMNSLKPEDTAVYYCAAGPAPGHDSWGQGTQVTVSS”, the “polyreactivity (PSR sort gate)” value was “high polyreactivity”.
For “QVQLVESGGGLVQAGGRLRLSCAASGRIFLFYDMGWYRQAPGKERELVATISFRRGSTYYADSVKGRFTISRDNAKNTVYLQMNSLKPEDTAVYYCAKQNKRGYSTSAYYYWGQGTQVTVSS”, the “polyreactivity (PSR sort gate)” value was “low polyreactivity”.
With “QVQLVESGGGLVQAGGSLRLSCAASGSNIDGYAMGRYRQAPGKEREFLAAISFSSASTYYADSVKGRFTISRDNAKNSVYLQMNSLKPEDTAVYYCNADFFESGGSIEYDSSGQGTQVTVSS” the “polyreactivity (PSR sort gate)” value was “low polyreactivity”.
With “QVQLVESGGGLVQAGGSLRLSCAASGRIFYEYAMGWYRQAPGKERELVAISTSGGNTYYADSVKGRFTISRDNAKNTVYLQMNSLKPEDTAVYYCAARLQYYPYYYWGQGTQVTVSS” the “polyreactivity (PSR sort gate)” value was “high polyreactivity”.
For “QVQLVESGGGLVQAGGSLRLSCAASGNIFSFYAMGWYRQAPGKERELVAAINWSGGDTYYADSVKGRFTISRDNAKNTVYLQMNSLKPEDTAVYYCAAEYYYQYYPGGYDYWGQGTQVTVSS”, the “polyreactivity (PSR sort gate)” value was “high polyreactivity”.
With “QVQLVESGGGLVQAGGSLRLSCAAAGITLYRYVMGWYRQAPGKERELVADISGRGTSTYYADSEKGRFTISRDNAKNTVYLQMNSLKPEDTAVYYCNAEYTKTGALVIPYTYYYAEDYWGQGTQVTVSS” the “polyreactivity (PSR sort gate)” value was “low polyreactivity”.
For “QVQLVESGGGLVQAGGSLRLSCAASRFTFRRNAMGWYRQAPGKERELVAAITYNGGTTYYADSVKGRFTISRDNAKNTVYLQMNSLKPEDTAVYYCNAPYGRQGYDYWGQGTQVTVSS”, the “polyreactivity (PSR sort gate)” value was “low polyreactivity”.
With “QVQLVESGGGLVQAGGSLRLSCAATGRILYYYAMVWYRQAPGKEREVVAASTSGGSTYADSVKGRFTISRDNAKNTVYLQMNSQKPEDTAVYYCNADSTVYDTEYAYWGQGTQVTVSS” the “polyreactivity (PSR sort gate)” value was “low polyreactivity”.
For “QVQLVDSGGGLVQAGGSLRLSCAASGRIFYPYAMGWYREATGKERELVAAMTRRTASTYYADSVKGRFTISRDNAKNTVYLQMNSLKPQDTAVYYCAAVSYLKRPYYAGYYYWGQGTQVTVSS”, the “polyreactivity (PSR sort gate)” value was “high polyreactivity”.
With “QVQLVESGGGLVQAGGSLRLSCAASGTLSSYAMGWYRQAAGKERELVAALSLSGGSTYADSVKGRFTISRDNAYNTVYLQMNSLKPEDTAVYYCAKDWDVDITWSFSIYNYWGQGTQVTVSS” the “polyreactivity (PSR sort gate)” value was “low polyreactivity”.
For “QVQLVESGGGLVQSGGSLRLSCAASGRTYGYNAMGWYRQAPGKERELVAAISRSGDSTYYADSVKGRFTISRDNAKNTVYLQMNSLKPEDTAVYYCATRYVTTGYDYWGQGTQVTVSS”, the “polyreactivity (PSR sort gate)” value was “low polyreactivity”.
For “QVQLVESGGGLVQAGGSLRLSCAASGSIFEYNAMGWYRQAPGKERELVAAISGNGGRTYYADSVKGRFTISRDNAKNTVYLQMNSLKPEDTAVYYCNAQTYYSTYKSTFYYWGQGTQVTVSS”, the “polyreactivity (PSR sort gate)” value was “high polyreactivity”.
With “QVQLVESGGGLVQAGGSLRLSCAASGRILKYYAMAWYREAPGKERELVAAIWSGGSTYYADSVKGRFTISRDNAKNTVYLLMNSLKPEDTAVYYCNAEYQWGGYGYDYWGQGTQVTVSS” the “polyreactivity (PSR sort gate)” value was “low polyreactivity”.
For “QVQLVESVRGLVQAGGSLRLSCAASGRIIYLNGMGSYRQAPGKERELVAAISSSDDSTYYAVSVKGRFTISRDNATNTVYLQLNSLKPEDTAVYYCAAGYHQVQNYGDAYYWSELYSWGQGTQVTVSS”, the “polyreactivity (PSR sort gate)” value was “low polyreactivity”.
In the case of “QVQLVESGGGLVQAGGSLRLSCAASGRIFRYYAMGWSRQAPGKERELVAAITSDGRTYYADSVKGRVTISRDNAKNTVYLQMNSLKPEDTAVYYCAADHHSYRYGGYYYWGQGTQVTVAS”, the “polyreactivity (PSR sort gate)” value is reported as “low polyreactivity”.
For “QVQLVESGGGLVQAGGSLRLSCAASGSTFDHNAMGWYRQAPGKEREFVAAISARGGITYYADSVKGRFTISRDNAKNTVYLQMNSLKPEDTAVYYCADVFGDYWSSQWSYAYGYWGLGTQVTVSS”, the “polyreactivity (PSR sort gate)” value was “high polyreactivity”.
In the case of “QVQLVESGGGLVQAGGSLRLSCAASGSTFNRYAMGWYRQAPGKERELVASISWGGGRTYYADSVKGRFTISRDNAKNTVYLQMNSLKPEDSAVYYCAAGGALASQWSTKLYDYWGQGTQVTVSS”, the “polyreactivity (PSR sort gate)” value is reported as “low polyreactivity”.
For “QVQLVESGGGLVQAGGSLRLSCAASGFTFRYYAMGWYRQAPGKERELVATISRGGSTNYVDSVKGRFTISRDNAKNTVYLQMNRLKPEDPAVYSCNARYKGWWVSTDSSTDDYWGQGTQVTVSS”, the “polyreactivity (PSR sort gate)” value was “high polyreactivity”.
With “QVQLQESGGGLVQACGSLRLSCAASGYIFSHQYMGWYRQAPGKERELVASISPGATTNYADCVKGRFTISRDNAKNTVYLQMNSLKPEDTAVYYYAVYQILDRRLSYWGQGTQVTVSC” the “polyreactivity (PSR sort gate)” value was “high polyreactivity”.
In the case of “QVQLVESGGGLVQAGGSLRLSCAASGRIFFYNGMGWYRQAPGKERELVAAINRSGGSTYYADSVKGRFTISRDNAKNTVYLQMNSLKPVDTAVYYCNAASFTVPMDFWGQGTQVTVSS”, the “polyreactivity (PSR sort gate)” value is reported as “low polyreactivity”.
With “QVQLVESGGGLVQAGGSLRLSCAASGLTFSLNAMGWYRQAPGKERELVAAIRGSGGSTYYADSVKGRFTISRDNAKNTVYLQMNCLKPEDTAVYYCNADQLVWQRYGVLYEYDYWGQGTQVTVSS” the “polyreactivity (PSR sort gate)” value was “high polyreactivity”.
For “QVQLVESGGGLVQAGGSLRLSCAASGRIFARNVMGWYRQAPGKERELVAGISRSGGTTYYADSVKGRFTISRDNAKNTVYLQMNSLKPEDTAVYYCAAYYFLENDYWGPGTQVTVSS”, the “polyreactivity (PSR sort gate)” value was “high polyreactivity”.
With “QVQLVDSGGGLVQAGGSLRLTCAASGSIFDRYAMGWYRQAPGKERELVAAITGRGTSTYYADSVKGRFTISRDNAKNTVYLQMNSLKPEETAVYYCATPFWSRPAQDEYDYWGQGTQVTVSS” the “polyreactivity (PSR sort gate)” value was “high polyreactivity”.
